Source: the supplement of paper PMC10724198

Tests used:
Saccharomyces cerevisiae [1] = assay: protein stability index of tFT-peptide fusion in wild type (PSI (0-1 scale)); higher = more stable (slower turnover); details: genetic background: wild type
Description: (§1)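 MPS profiling in S. cerevisiae of two library types built from selected 12-aa C-degron peptides (IN1, IN2, LN1, LN3, VN2, R1-R5, W1-W3, Atg1 and Rpa12 C-termini): saturation mutagenesis libraries and C-terminal +1 capping libraries (13 aa). Each peptide is fused to the C-terminus of a sfGFP-mCherry timer, after a GGGS linker. Cells are FACS-sorted into 8 mCherry/sfGFP bins and sequenced. PSI runs from 0 (unstable) to 1 (stable), measured once in wild type and in the das1Δ or doa10Δ background.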

Saccharomyces cerevisiae [2] = assay: protein stability index of tFT-peptide fusion in deletion strain of DAS1 (PSI (0-1 scale)); higher = more stable (slower turnover)
Description: as §1
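Throughout, for protein stability index of tFT-peptide fusion in deletion strain of DAS1: PSI is a weighted mean of each variant's read distribution over the sorted stability bins, computed only for variants having over 10 reads in total.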
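Throughout, for protein stability index of tFT-peptide fusion in wild type: PSI derived as read-weighted mean over the 8 sorting bins, only variants exceeding 10 total reads kept, mCherry placed adjacent to the peptide and sfGFP distal.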

Row | Sequence | protein stability index (Saccharomyces cerevisiae [1]) | protein stability index (Saccharomyces cerevisiae [2])
1 | ARFRVGLWRGAS | 0.56 | 0.668
2 | ARPRVGLWRGAS | 0.65 | 0.681
3 | ARWAVGLWRGAS | 0.428 | 0.71
4 | ARWRQGLWRGAS | 0.678 | 0.616
5 | ARWRVGGWRGAS | 0.557 | 0.701
6 | ARWRVGLWDGAS | 0.705 | 0.688
7 | ARWRVGLWRGAE | 0.644 | 0.685
8 | ARWRVGLWRGAK | 0.669 | 0.659
9 | ARWRVGLWRGASC | 0.628 | 0.669
10 | ARWRVGLWRGASS | 0.593 | 0.688
11 | ARWRVGLWRGCS | 0.266 | 0.683
12 | ARWRVGLWRGYS | 0.621 | 0.659
13 | ARWRVGLWRMAS | 0.0865 | 0.683
14 | ARWRVGMWRGAS | 0.458 | 0.701
15 | ARWRVGNWRGAS | 0.684 | 0.678
16 | ARWRVGPWRGAS | 0.577 | 0.68
17 | ARWRVGRWRGAS | 0.533 | 0.688
18 | ARWRVTLWRGAS | 0.382 | 0.692
19 | ARWSVGLWRGAS | 0.448 | 0.692
20 | ATWRVGLWRGAS | 0.487 | 0.685
21 | CGSCGYKFRTNN | 0.265 | 0.687
22 | CISCGYKFRTNN | 0.211 | 0.725
23 | CTSCGFKFRTNN | 0.486 | 0.697
24 | CTSCGMKFRTNN | 0.304 | 0.715
25 | CTSCGYKFCTNN | 0.377 | 0.698

Row | Sequence | protein stability index (Saccharomyces cerevisiae [1]) | protein stability index (Saccharomyces cerevisiae [2])
26 | CTSCGYKFPTNN | 0.71 | 0.728
27 | CTSCGYKFRCNN | 0.487 | 0.695
28 | CTSCGYKFRINN | 0.233 | 0.721
29 | CTSCGYKFRLNN | 0.35 | 0.701
30 | CTSCGYKFRTDN | 0.65 | 0.653
31 | CTSCGYKFRTNE | 0.726 | 0.685
32 | CTSCGYKFRTNM | 0.156 | 0.731
33 | CTSCGYKFRTNNA | 0.698 | 0.697
34 | CTSCGYKFRTNNE | 0.709 | 0.711
35 | CTSCGYKFRTNNV | 0.684 | 0.69
36 | CTSCGYKYRTNN | 0.295 | 0.674
37 | CTSCGYMFRTNN | 0.357 | 0.682
38 | CTSCHYKFRTNN | 0.26 | 0.64
39 | CVVYLSCVACIN | 0.0137 | 0.0323
40 | DRWRVGLWRGAS | 0.413 | 0.657
41 | DTSCGYKFRTNN | 0.241 | 0.68
42 | FAMRWTFRYWVN | 0.0656 | 0.476
43 | FKILRQKMNHQN | 0.168 | 0.672
44 | FSDRWTFRYWVN | 0.095 | 0.605
45 | FSMGWTFRYWVN | 0.0807 | 0.575
46 | FSMLWTFRYWVN | 0.0376 | 0.346
47 | FSMRLTFRYWVN | 0.0555 | 0.401
48 | FSMRWQFRYWVN | 0.0795 | 0.53
49 | FSMRWTCRYWVN | 0.0505 | 0.515
50 | FSMRWTFEYWVN | 0.0782 | 0.448
